The target of the experiment is T1, Qc-SNARE Vam7 (wild type, naturally soluble) (S. cerevisiae, UniProt P32912 1-316).
T1 sequence (looked up): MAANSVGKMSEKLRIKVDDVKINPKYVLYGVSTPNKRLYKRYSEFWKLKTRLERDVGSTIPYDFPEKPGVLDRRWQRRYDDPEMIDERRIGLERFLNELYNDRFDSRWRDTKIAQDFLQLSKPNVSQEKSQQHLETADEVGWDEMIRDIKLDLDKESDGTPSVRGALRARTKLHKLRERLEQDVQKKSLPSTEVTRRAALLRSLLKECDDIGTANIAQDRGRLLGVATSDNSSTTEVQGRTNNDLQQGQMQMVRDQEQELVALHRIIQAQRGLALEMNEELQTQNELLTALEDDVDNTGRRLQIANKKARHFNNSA
Description: co-flotation with proteoliposomes.

B1: Rab GTPase Ypt7, GTP-loaded, bound to proteoliposomes (natural protein, S. cerevisiae, UniProt P32939 1-208, looked up)
chain: MSSRKKNILKVIILGDSGVGKTSLMHRYVNDKYSQQYKATIGADFLTKEVTVDGDKVATMQVWDTAGQERFQSLGVAFYRGADCCVLVYDVTNASSFENIKSWRDEFLVHANVNSPETFPFVILGNKIDAEESKKIVSEKSAQELAKSLGDIPLFLTSAKNAINVDTAFEEIARSALQQNQADTEAFEDDYNDAINIRLDGENNSCSC
Consider B1, for which the binding result is recorded as “binds”.

For the origin of these results see paper PMC5385945 (Molecular Biology of the Cell, 2017).
